Data on 27 sequences can be found in the supplement of paper PMC9732359.

± gives the uncertainty stated by the source.

The data set can be described thus: protein stability index of a GFP-peptide fusion (yeast GPS) (PSI 1-4); higher = more stable; sorted into four equal gates, so the index is relative within each strain. An outline of the steps:
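Tiled 17-residue yeast protein peptides were fused downstream of GFP in a plasmid that also expresses Cherry, and the pooled library was carried in yeast. Mid-log cultures in leucine-free medium were sorted into four equal gates by GFP/Cherry fluorescence ratio, and plasmids from each gate were PCR-amplified and Illumina-sequenced, with reads assigned to strains by barcodes. The protein stability index for each peptide was each gate's read frequency times its gate number, summed.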

Turning to SQDATKVDATPEESKPI [YLR335W/NUP2], the protein stability index was determined as 2.87 ± 0.12 (doa10∆), 3.17 ± 0.089 (pdr5∆), 2.81 ± 0.08 (san1∆) and 3.18 ± 0.06 (ubr1∆).
The matching figures for SQIRLYAKFKRNTMMIQ [RGR1]: 2.44 ± 0.21, 2.37 ± 0.11, 2.14 ± 0.11 and 2.61 ± 0.13.
The matching figures for SQKQTLIKKPLTVFYAI [SSN3]: 2.1 ± 0.089, 2.13 ± 0.061, 2.12 ± 0.085 and 2.01 ± 0.057.
SQLAKWKTAEEVSALVR [PRP8] came in with a protein stability index (doa10∆) of 1.26 ± 0.17.
SQPKIGYGSNKKTKFLS [RPL32]: the protein stability index was found to be 1.23 ± 0.15 (doa10∆), 1.52 ± 0.16 (pdr5∆) and 1.38 ± 0.096 (ubr1∆).
On to SQPTAAGGPDMTTPQNI [DSN1], for which the protein stability index by setting is: (doa10∆) 1.82 ± 0.065; (pdr5∆) 1.9 ± 0.063; (san1∆) 1.89 ± 0.1; (ubr1∆) 1.36 ± 0.053.
The matching figures for SQSKMMSSQISSLIPHC [MTR3]: 2.35 ± 0.057, 2.09 ± 0.039, 2.21 ± 0.048 and 2.31 ± 0.042.
The matching figures for SQSLGVSNKFEKIFHYG [PUP3]: 3.47 ± 0.13, 3.5 ± 0.17, 2.95 ± 0.13 and 3.61 ± 0.14.
The matching figures for SQTPSFNTNSSFTPSTV [YOR098C/NUP1]: 2.4 ± 0.033, 2.671 ± 0.025, 2.52 ± 0.033 and 2.898 ± 0.026.
As for SQVVWIRRLRVLRRLLA [RPL19A], the protein stability index reads like this: (doa10∆) 1.22 ± 0.054; (pdr5∆) 1.46 ± 0.049; (san1∆) 1.44 ± 0.12; (ubr1∆) 1.29 ± 0.053.
In the case of SRAQILQIHSRKMTTDD [RPT5], the protein stability index is, setting by setting: (doa10∆) 2.72 ± 0.082; (pdr5∆) 2.43 ± 0.055; (san1∆) 2.92 ± 0.068; (ubr1∆) 3.08 ± 0.046.
The matching figures for SRDELIRLAKTLKKNNV [RPN10]: 1.77 ± 0.086, 1.81 ± 0.091, 2.42 ± 0.17 and 2.07 ± 0.089.
Taken in the same sequence, the figures for SRDLWCFSINDDPVPTP [SSN2] were 2.21 ± 0.085, 2.21 ± 0.088, 2.94 ± 0.081 and 2.63 ± 0.1.
SRENNSEYMVFGKLAFP [YJL039C/NUP192]: the protein stability index (doa10∆) came out at 2.49 ± 0.064, the protein stability index (pdr5∆) came to 2.54 ± 0.072, the protein stability index (san1∆) is 2.97 ± 0.069 and the protein stability index (ubr1∆) is 2.79 ± 0.082.
With SREVLRYEEFADKVKLG [RPC40], the protein stability index by setting is: (doa10∆) 2.96 ± 0.08; (pdr5∆) 3.26 ± 0.19; (san1∆) 3.17 ± 0.12; (ubr1∆) 3.21 ± 0.14.
The matching figures for SRFTNVSVIAPESQGQH [YMR153W/NUP53]: 3 ± 0.09, 3.39 ± 0.087, 2.6 ± 0.12 and 3.19 ± 0.048.
Taken in the same sequence, the figures for SRKRGGENVFLKRISDG [SIR3] were 3.35 ± 0.086, 3.29 ± 0.072, 3.07 ± 0.052 and 3.24 ± 0.037.
Taken in the same sequence, the figures for SRLTLLLRALKTNEESA [PRP8] were 1.91 ± 0.056, 1.58 ± 0.058, 1.84 ± 0.09 and 1.97 ± 0.044.
For the sequence SRMFEEVSGSIQYKKEY [SMC1], the protein stability index reads like this: (doa10∆) 3.09 ± 0.057; (pdr5∆) 2.02 ± 0.06; (san1∆) 2.37 ± 0.075; (ubr1∆) 3.21 ± 0.057.
Taken in the same sequence, the figures for SRNFSTRDEETTKLAFL [SIR4] were 3.04 ± 0.065, 3.09 ± 0.055, 3.03 ± 0.04 and 2.97 ± 0.038.
Take SRRPEPKKFGGKGARSR [RPS16A]: the protein stability index by setting is: (doa10∆) 3.06 ± 0.11; (pdr5∆) 3.25 ± 0.095; (san1∆) 3.25 ± 0.077; (ubr1∆) 3.06 ± 0.052.
The matching figures for SRRTVNKEMETQRIMTN [YLR018C/POM34]: 3.51 ± 0.12, 3.15 ± 0.29, 3.22 ± 0.26 and 3.1 ± 0.2.
The sequence SRVINVVRAASSLASQD [RRP6] registered a protein stability index (doa10∆) of 1.98 ± 0.082, a protein stability index (pdr5∆) of 2.47 ± 0.074 and a protein stability index (san1∆) of 2.57 ± 0.18.
As for SSDVDMDDEEWRSKRIE [RPC53], the protein stability index (doa10∆) stood at 3.47 ± 0.1, the protein stability index (pdr5∆) is 3.17 ± 0.1, the protein stability index (san1∆) is 3.42 ± 0.053 and the protein stability index (ubr1∆) is 3.31 ± 0.069.
The matching figures for SSEQDYSTLKELLEYSD [YCG1]: 2.92 ± 0.082, 2.75 ± 0.088, 3.15 ± 0.068 and 3.15 ± 0.086.
Taken in the same sequence, the figures for SSETDDDHSQVINPQQL [DSN1] were 2.99 ± 0.048, 3.13 ± 0.05, 2.99 ± 0.044 and 3.08 ± 0.048.
The matching figures for SSFGSESLTFNEFQLQW [SWI1]: 2.98 ± 0.066, 2.84 ± 0.056, 2.56 ± 0.054 and 3.02 ± 0.046.
